Biological target: T1, CD58 Full ECD (human, UniProt P19256 30-215)
T1 construct: Recombinant, made in HEK293 cells
T1 sequence: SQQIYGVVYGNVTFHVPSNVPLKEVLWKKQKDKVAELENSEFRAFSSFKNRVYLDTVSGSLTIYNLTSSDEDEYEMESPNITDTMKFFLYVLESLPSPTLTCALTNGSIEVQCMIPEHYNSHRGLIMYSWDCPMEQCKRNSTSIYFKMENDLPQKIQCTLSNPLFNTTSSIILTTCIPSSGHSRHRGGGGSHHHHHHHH
Assay: isothermal titration calorimetry; 100 uM CD2 titrated into 10 uM CD58 variant in HBS
Description: To ensure the binding affinity remained uncompromised by the additional of the stabilizing disulfide variance, isothermal calorimetry (ITC) was performed on the resulting recombinant CD58 proteins to determine their apparent KD and binding stoicheometry (n) to recombinant human CD2.
Briefly, recombinant human CD2 and recombinant human CD58 variants were dialyzed into HEPES-buffered saline (HBS). CD2 was diluted to final concentration of 100 μM, CD58 variants were diluted to 10 μM. CD2 was titrated into 10 μM of CD58 variants via multiple injections and ΔH (kcal/mole) determined using a MicroCal VP-ITC isothermal titration calorimeter (Malvern). Titrations of CD2 into HBS were used as a reference and KD and n determined from the resulting data.

B1: Human CD2 (receptor)
chain: KEITNALETWGALGQDINLDIPSFQMSDDIDDIKWEKTSDKKKIAQFRKEKETFKEKDTYKLFKNGTLKIKHLKTDDQDIYKVSIYDTKGKNVLEKIFDLKIQERVSKPKISWTCINTTLTCEVMNGTDPELNLYQDGKHLKLSQRVITHKWTTSLSAKFKCTAGNKVSKESSVEPVSCPEKGLD
notes: also called recombinant human CD2; CD2 extracellular domain
Question: For B1, which Kd is on record?
Answer: The Kd was 570 nM.
